Data from patent US20230002466A1.

Molecular target: human IL2Rα (human) (UniProt P01589)
Assay: SPR, IL2Rα captured on Protein A chip, IL2 at 100 nM

human IL2Rα (human), sequence (P01589 22-213 limits assumed): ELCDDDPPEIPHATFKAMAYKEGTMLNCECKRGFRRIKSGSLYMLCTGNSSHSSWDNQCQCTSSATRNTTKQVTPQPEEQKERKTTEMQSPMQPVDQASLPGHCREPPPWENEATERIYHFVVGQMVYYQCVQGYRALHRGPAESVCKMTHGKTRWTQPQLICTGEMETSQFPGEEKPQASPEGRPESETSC

RU (at 100 nM): 7.4 RU
Relevant binding to WT IL2 (%): 5.21%
B1: EP225 (ligand)
chain: APTSSSTKKTQLQLEHLLLDLQMILNGINNYKNPKLTRMLTAKFYMPKKATELKHLQCLEEELKPLEEVLNLAQSKNFHLTARDAVDNMRVIIQELKGSETTFMCEYADETATIVEFLNRWITFSQSIISTLTGSHHHHHH
